± gives the uncertainty stated by the source.
Assay: self-splicing fitness, log relative to wild type (ln ratio); higher = more splicing; Tetrahymena group I intron in knt gene, E. coli kanamycin selection, DiMSum; sequences stand for … in CUCUCU…GGAGGGAAAAGUUAUCAGGCAUGCACCUGGUAGCUAGUCUUUAAACCAAUAGAUUGCAUCGGUUUAAAAGGCAAGACCGUCAAAUUGCGGGAAAGGGGUCAACAGCCGUUCAGUACCAAGUCUCAGGGGAAACUUUGAGAUGGCCUUGCAAAGGGUAUGGUAAUAAGCUGACGGACAUGGUCCUAACCACGCAGCCAAGUCCUAAGUCAACAGAUCUUCUGUUGAUAUGGAUGCAGUUCACAGACUAAAUGUCGGUCGGGGAAGAUGUAUUCUUCUCAUAAGAUAUAGUCGGACCUCUCCUUAAUGGGAGCUAGCGGAUGAAGUGAUGCAACACUGGAGCCGCUGGGAACUAAUUUGUAUGCGAAAGUAUAUUGAUUAGUUUUGGAGUACUCGUGGUCG
Method in brief: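 Six replicate transformations of E. coli BL21(DE3) with a pET-22b(+) library were grown overnight at 37°C or 30°C. The library randomised all eight P1ex-region intron nucleotides, the intron lying in the knt kanamycin-resistance gene, and plates were LB agar with or without 25 μg/mL kanamycin plus 100 μg/mL carbenicillin, 50 μM IPTG and 0.2% rhamnose. Pooled colonies were amplicon-sequenced on an Illumina HiSeq 2500, and fitness is the DiMSum error-weighted combination of wild-type-normalised replicate fold changes, kanamycin versus none.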

Sequence	self-splicing fitness (ln) (30 °C)	self-splicing fitness (ln) (37 °C)
CUACAGCAAUAUUACGACCA	-2.7 ± 0.3	-2.31 ± 0.35
CUACAGCAAUAUUACGAUUC	-4.31 ± 0.43	-1.6 ± 0.24
CUACAGCAAUAUUACGCCCU	-3.11 ± 0.2	-2.85 ± 0.29
CUACAGCAAUAUUACGCCUC	-3.9 ± 0.3	-0.901 ± 0.34
CUACAGCAAUAUUACGCGGA	-3.06 ± 0.25	-3 ± 0.27
CUACAGCAAUAUUACGCUCU	-4.15 ± 0.25	-2.74 ± 0.29
CUACAGCAAUAUUACGGAAG	-1.46 ± 0.085	-0.751 ± 0.11
CUACAGCAAUAUUACGGAGA	-4.39 ± 0.42	-2.27 ± 0.27
CUACAGCAAUAUUACGGGAC	-2.98 ± 0.14	-2.06 ± 0.15
CUACAGCAAUAUUACGGGCA	-2.76 ± 0.18	-2.21 ± 0.21
CUACAGCAAUAUUACGUAAU	-3.8 ± 0.19	-2.84 ± 0.18
CUACAGCAAUAUUACGUACU	-3.15 ± 0.14	-1.05 ± 0.15
CUACAGCAAUAUUACGUGAC	-1.02 ± 0.09	-0.853 ± 0.14
CUACAGCAAUAUUACGUGCG	-1.75 ± 0.081	-0.715 ± 0.089
CUAGAGCAAUAUUACGACAA	-2.53 ± 0.32	-1.84 ± 0.34
CUAGAGCAAUAUUACGAUGC	-2.31 ± 0.42	-1.94 ± 0.43
CUAGAGCAAUAUUACGCAAG	-1.8 ± 0.096	-0.42 ± 0.11
CUAGAGCAAUAUUACGCACG	-0.957 ± 0.15	-0.23 ± 0.24
CUAGAGCAAUAUUACGCAUC	-3.92 ± 0.29	-2.65 ± 0.45
CUAGAGCAAUAUUACGCCCG	-0.259 ± 0.2	0.187 ± 0.18
CUAGAGCAAUAUUACGCGAC	-0.657 ± 0.13	0.181 ± 0.16
CUAGAGCAAUAUUACGCGUG	-0.446 ± 0.1	-0.476 ± 0.12
CUAGAGCAAUAUUACGGAGG	-1.49 ± 0.13	-1.98 ± 0.16
CUAGAGCAAUAUUACGGUAA	-3.52 ± 0.29	-1.5 ± 0.16
CUAGAGCAAUAUUACGGUCG	0.342 ± 0.11	-0.264 ± 0.13

Sequence	self-splicing fitness (ln) (30 °C)	self-splicing fitness (ln) (37 °C)
CUAGAGCAAUAUUACGUACG	-0.818 ± 0.082	0.268 ± 0.12
CUAGAGCAAUAUUACGUAGU	-2.72 ± 0.22	-1.94 ± 0.33
CUAGAGCAAUAUUACGUAUA	-3.08 ± 0.49	–
CUAGAGCAAUAUUACGUCGG	-0.971 ± 0.095	-0.975 ± 0.1
CUAGAGCAAUAUUACGUCUC	-3.75 ± 0.2	-2.76 ± 0.25
CUAGAGCAAUAUUACGUGAC	-1.08 ± 0.12	-1.31 ± 0.17
CUAGAGCAAUAUUACGUUCA	-3.21 ± 0.24	-1.36 ± 0.29
CUAGAGCAAUAUUACGUUGA	-4.21 ± 0.34	-3.11 ± 0.38
CUAUAGCAAUAUUACGAAUU	-2.02 ± 0.39	-2.26 ± 0.46
CUAUAGCAAUAUUACGACAA	-2.79 ± 0.5	-2.64 ± 0.44
CUAUAGCAAUAUUACGACGC	-3.02 ± 0.36	-2.14 ± 0.38
CUAUAGCAAUAUUACGAGCA	-2.91 ± 0.25	-2.36 ± 0.33
CUAUAGCAAUAUUACGAGUC	-2.61 ± 0.24	-2.52 ± 0.3
CUAUAGCAAUAUUACGAUUC	-3.51 ± 0.26	-1.71 ± 0.21
CUAUAGCAAUAUUACGCAAU	-3.66 ± 0.24	-1.58 ± 0.21
CUAUAGCAAUAUUACGCCGG	-1.65 ± 0.21	-0.422 ± 0.25
CUAUAGCAAUAUUACGCGUA	-1.43 ± 0.31	-2.86 ± 0.31
CUAUAGCAAUAUUACGCGUG	-1.27 ± 0.1	-0.122 ± 0.12
CUAUAGCAAUAUUACGGAAC	–	-1.63 ± 0.49
CUAUAGCAAUAUUACGGACU	–	-1.89 ± 0.31
CUAUAGCAAUAUUACGGAUG	-0.942 ± 0.11	-0.343 ± 0.11
CUAUAGCAAUAUUACGGCCG	0.0895 ± 0.15	-0.314 ± 0.15
CUAUAGCAAUAUUACGGGGC	–	-1.7 ± 0.33
CUAUAGCAAUAUUACGUACA	-2.36 ± 0.17	-2.05 ± 0.2

Source: the supplement of paper PMC7877785
